The labels stand for the following.
B1: Antibody 8 (Fab format) (Fab, V domains shown)
VH: QVQLQESGPGLVRPSQTLSLTCTVSGFDMQSTYMHWVRQRPGRGLEWMGRIEPAGGHTKYNPSLKSRVTITRDTSKNQVSLRLSSVTAADTAVYYCVRSGGLPDVWGQGSLVTVSS
VL: DIQMTQSPSSLSASVGDRVTITCRASSSVSYMYWYQQKPGKAPKLLIYGASNLASGVPSRFSGSGSGTDFTFTISSLQPEDIATYYCQQWEGNPRTFGQGTKVEIK
notes: High priority lead, Fab format
B2: Antibody 10 (Fab format) (Fab, V domains shown)
VH: B1 VH with F27L, M29P, Q30D, S31D, R98I
VL: B1 VL with S27Q, S28G, S30E
notes: as for B1
B3: Antibody 11 (Fab format) (Fab, V domains shown)
VH: B1 VH with Q30G, S31D, L102M
VL: B1 VL with S27Q, S28G, S30E, G49S
notes: as for B1
B4: Antibody 16 (Fab format) (Fab, V domains shown)
VH: B1 VH
VL: B1 VL with S27Q, S28G, S30E
notes: as for B1
B5: Antibody 12 (Fab format) (Fab, V domains shown)
VH: B1 VH with M29I, Q30T, S31D
VL: B1 VL with S27Q, S28G, S30E, G49S
notes: as for B1
B6: Antibody 9 (Fab format) (Fab, V domains shown)
VH: B1 VH with M29I, S31D, V105A
VL: B1 VL with S27Q, S28G, S30G, G49S
notes: as for B1
B7: Antibody 17 (Fab format) (Fab, V domains shown)
VH: B1 VH with Q30G, S31D, G55A
VL: B1 VL with S27Q, S28G, S30E
notes: as for B1
B8: Antibody 19 (Fab format) (Fab, V domains shown)
VH: B1 VH with M29I, Q30T, S31D
VL: B1 VL with S27Q, S28G, S30E, G49Y
notes: as for B1
B9: Antibody 15 (Fab format) (Fab, V domains shown)
VH: B1 VH with M29I, S31D, V105A
VL: B1 VL with S27Q, S28G, V29I, S30Y
notes: as for B1
B10: Antibody 18 (Fab format) (Fab, V domains shown)
VH: B1 VH with Q30G, S31D, L102M
VL: B1 VL with G49Y
notes: as for B1
B11: Antibody 20 (Fab format) (Fab, V domains shown)
VH: B1 VH with M29I, S31D, G55S, V97A, L102M, V105M
VL: B1 VL with S27Q, S28G, S30M
notes: as for B1
B12: Antibody 14 (Fab format) (Fab, V domains shown)
VH: B1 VH with F27L, M29P, Q30D, S31D, R98I
VL: B1 VL with S27Q, S28G, V29I, S30Y
notes: as for B1
B13: Antibody 13 (Fab format) (Fab, V domains shown)
VH: B1 VH with M29Y, S31D, E52D, G55S, V97A, R98V, L102M
VL: B1 VL with S27Q, S28G, S30E, G49A, A50T
notes: as for B1
B14: Antibody 16 (mAb format) (antibody, human IgG1, kappa, N297A)
heavy: QVQLQESGPGLVRPSQTLSLTCTVSGFDMQSTYMHWVRQRPGRGLEWMGRIEPAGGHTKYNPSLKSRVTITRDTSKNQVSLRLSSVTAADTAVYYCVRSGGLPDVWGQGSLVTVSSASTKGPSVFPLAPSSKSTSGGTAALGCLVKDYFPEPVTVSWNSGALTSGVHTFPAVLQSSGLYSLSSVVTVPSSSLGTQTYICNVNHKPSNTKVDKKVEPKSCDKTHTCPPCPAPELLGGPSVFLFPPKPKDTLMISRTPEVTCVVVDVSHEDPEVKFNWYVDGVEVHNAKTKPREEQYASTYRVVSVLTVLHQDWLNGKEYKCKVSNKALPAPIEKTISKAKGQPREPQVYTLPPSRDELTKNQVSLTCLVKGFYPSDIAVEWESNGQPENNYKTTPPVLDSDGSFFLYSKLTVDKSRWQQGNVFSCSVLHEALHSHYTQKSLSLSPGK
light: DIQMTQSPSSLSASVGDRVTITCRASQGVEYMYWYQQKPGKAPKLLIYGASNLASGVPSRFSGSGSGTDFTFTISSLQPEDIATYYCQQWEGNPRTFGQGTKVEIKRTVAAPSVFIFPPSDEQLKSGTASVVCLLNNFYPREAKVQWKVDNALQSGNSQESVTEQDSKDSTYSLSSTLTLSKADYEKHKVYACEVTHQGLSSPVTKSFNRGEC
notes: also called high priority lead mAb
B15: Antibody 6 (mAb format) (antibody, human IgG1, kappa, N297A)
heavy: B14 heavy with Q30A, S31D, V105M
light: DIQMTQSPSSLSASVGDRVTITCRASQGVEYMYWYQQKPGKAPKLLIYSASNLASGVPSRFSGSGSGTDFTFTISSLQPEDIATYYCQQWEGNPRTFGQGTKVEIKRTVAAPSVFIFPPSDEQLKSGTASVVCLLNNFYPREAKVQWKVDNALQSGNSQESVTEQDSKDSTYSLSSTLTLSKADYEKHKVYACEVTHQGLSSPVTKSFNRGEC
notes: as for B14
B16: Antibody 9 (mAb format) (antibody, human IgG1, kappa, N297A)
heavy: B14 heavy with M29I, S31D, V105A
light: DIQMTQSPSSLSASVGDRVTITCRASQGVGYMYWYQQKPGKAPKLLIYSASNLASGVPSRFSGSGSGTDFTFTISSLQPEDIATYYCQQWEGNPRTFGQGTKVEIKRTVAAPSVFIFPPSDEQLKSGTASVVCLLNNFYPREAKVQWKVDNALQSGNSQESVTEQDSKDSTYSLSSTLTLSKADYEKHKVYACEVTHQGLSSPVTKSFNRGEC
notes: as for B14
B17: Antibody 11 (mAb format) (antibody, human IgG1, kappa, N297A)
heavy: B14 heavy with Q30G, S31D, L102M
light: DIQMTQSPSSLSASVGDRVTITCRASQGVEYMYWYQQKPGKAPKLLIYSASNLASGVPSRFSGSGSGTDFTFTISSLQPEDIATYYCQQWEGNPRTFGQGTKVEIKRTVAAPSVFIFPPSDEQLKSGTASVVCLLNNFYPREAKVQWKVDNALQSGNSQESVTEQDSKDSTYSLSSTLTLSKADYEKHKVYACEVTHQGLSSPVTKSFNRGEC
notes: as for B14
B18: Antibody 4 (mAb format) (antibody, human IgG1, kappa, N297A)
heavy: B14 heavy with Q30A, S31D, V105M
light: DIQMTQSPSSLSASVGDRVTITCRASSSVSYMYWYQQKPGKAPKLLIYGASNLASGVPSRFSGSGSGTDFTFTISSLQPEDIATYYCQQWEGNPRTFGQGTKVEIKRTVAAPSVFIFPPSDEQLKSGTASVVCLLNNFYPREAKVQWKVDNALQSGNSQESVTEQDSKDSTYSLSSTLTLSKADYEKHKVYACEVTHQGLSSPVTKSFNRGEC
notes: as for B14
B19: Antibody 8 (mAb format) (antibody, human IgG1, kappa, N297A)
heavy: B14 heavy
light: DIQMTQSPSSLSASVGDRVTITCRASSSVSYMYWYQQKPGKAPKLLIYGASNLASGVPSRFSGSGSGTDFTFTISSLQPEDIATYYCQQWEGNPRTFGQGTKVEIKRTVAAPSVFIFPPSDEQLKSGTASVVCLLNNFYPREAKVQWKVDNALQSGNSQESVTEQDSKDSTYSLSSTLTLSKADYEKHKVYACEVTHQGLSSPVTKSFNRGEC
notes: as for B14
B20: Antibody 1 (mAb format) (antibody, human IgG1, kappa, N297A)
heavy: B14 heavy with M29I, S31D, V97A, R98S, L102M, V105L
light: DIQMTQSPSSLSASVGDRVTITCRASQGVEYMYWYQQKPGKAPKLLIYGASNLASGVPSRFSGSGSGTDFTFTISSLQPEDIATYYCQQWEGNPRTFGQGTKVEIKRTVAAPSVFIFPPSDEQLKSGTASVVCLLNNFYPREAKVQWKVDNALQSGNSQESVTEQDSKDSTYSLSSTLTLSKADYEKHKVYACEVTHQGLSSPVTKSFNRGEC
notes: also called Lead #1; high priority lead mAb
B21: Antibody 5 (mAb format) (antibody, human IgG1, kappa, N297A)
heavy: B14 heavy with S31D, G55S
light: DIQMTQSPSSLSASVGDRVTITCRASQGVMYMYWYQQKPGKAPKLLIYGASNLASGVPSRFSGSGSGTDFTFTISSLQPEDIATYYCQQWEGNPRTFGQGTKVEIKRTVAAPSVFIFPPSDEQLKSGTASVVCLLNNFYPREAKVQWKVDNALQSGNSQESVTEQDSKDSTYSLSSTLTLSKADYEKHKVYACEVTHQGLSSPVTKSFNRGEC
notes: as for B14
B22: Antibody 7 (mAb format) (antibody, human IgG1, kappa, N297A)
heavy: B14 heavy with Q30G, S31D, G55A, V105I
light: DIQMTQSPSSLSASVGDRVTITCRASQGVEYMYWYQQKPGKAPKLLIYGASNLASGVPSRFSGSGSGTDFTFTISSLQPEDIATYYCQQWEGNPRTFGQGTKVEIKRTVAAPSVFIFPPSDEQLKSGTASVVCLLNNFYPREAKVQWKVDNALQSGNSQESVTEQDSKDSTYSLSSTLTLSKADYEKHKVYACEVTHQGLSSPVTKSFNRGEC
notes: as for B14

Where a chain is given by its changes, count along the chain named. Some results are limits rather than exact numbers.

T4 sequence (P55899 24-297 limits assumed, chain 1 of 2): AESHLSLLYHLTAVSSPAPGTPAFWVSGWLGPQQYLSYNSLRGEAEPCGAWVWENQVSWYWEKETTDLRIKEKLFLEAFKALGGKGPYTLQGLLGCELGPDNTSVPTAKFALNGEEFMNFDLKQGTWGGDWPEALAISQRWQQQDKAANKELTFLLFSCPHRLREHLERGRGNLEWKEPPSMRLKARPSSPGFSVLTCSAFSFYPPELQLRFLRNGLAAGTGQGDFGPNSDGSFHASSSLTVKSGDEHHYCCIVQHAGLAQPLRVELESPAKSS
T4 sequence (P61769 21-119 limits assumed, chain 2 of 2): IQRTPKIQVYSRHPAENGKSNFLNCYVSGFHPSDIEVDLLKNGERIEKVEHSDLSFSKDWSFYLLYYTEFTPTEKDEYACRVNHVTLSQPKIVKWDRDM

One test deals with T1, human TL1A (human, UniProt O95150 72-251).
T1 construct: Antigen in SPR and ELISA; Also used here for places that print only 'TL1A' and for endogenous TL1A in human whole blood; also called TNFSF15
T1 sequence (looked up): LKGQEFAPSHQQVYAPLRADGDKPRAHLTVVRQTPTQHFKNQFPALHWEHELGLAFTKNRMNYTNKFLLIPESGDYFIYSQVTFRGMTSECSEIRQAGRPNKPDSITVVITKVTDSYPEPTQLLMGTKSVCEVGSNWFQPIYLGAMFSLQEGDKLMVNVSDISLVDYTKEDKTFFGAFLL
As to the kind of experiment: SPR, Fab lysate, average. In general terms: SPR reads the build-up and loss of mass on a sensor chip optically.
Usually Kd stands for the equilibrium constant for the complex coming apart. Molecule B1 gave a Kd of 0.38 nM. This lies in the sub-nanomolar range.
Same read-out and setting: next, B2: 0.48 nM; B3: 0.48 nM.
Same read-out and setting: with B4 the figure was 0.51 nM; with B5, 0.43 nM.
Still for that read-out and setting: with B6 the figure was 0.43 nM; with B7, 0.57 nM.
For B8, binding was characterised by a dissociation constant (Kd) of 0.72 nM.
On the same count and under the same terms, with B9 the figure was 0.5 nM; with B10, 0.67 nM.
Same read-out and setting: with B11 the figure was 0.76 nM; with B12, 0.7 nM; with B13, 0.43 nM.

In a further test the target is T1, human TL1A. The test can be described thus: SPR, Fab format, average.
B1 showed an equilibrium dissociation constant (Kd) of 0.38 nM.
For B2, the dissociation constant Kd is 0.48 nM.
B3 returned a Kd of 0.48 nM.
The same measure, in the same setting: with B4 the figure was 0.51 nM; with B5, 0.43 nM.
On the same count and under the same terms, next, B6: 0.43 nM; B7: 0.57 nM.
With B8, binding was characterised by a dissociation constant (Kd) of 0.72 nM. The Kd values of the last two molecules are within 1.5-fold of each other.
The same measure, in the same setting: next, B9: 0.5 nM; B10: 0.67 nM; B11: 0.76 nM.
Still for that read-out and setting: with B12 the figure was 0.7 nM; with B13, 0.43 nM.

The next test deals with T2, Cyno TL1A (cyno, UniProt G7PRK8 72-251).
T2 sequence: T1 sequence (looked up) with F39L, I78V
The test can be described thus: SPR, Fab format, average.
As to B1, binding was put at a Kd of 3.26 nM.
Consider B2, for which the Kd stood at 1.83 nM.
In turn, B3 gave an equilibrium dissociation constant (Kd) of 0.38 nM.
B4: the affinity, expressed as Kd, was 0.32 nM.
B5 had a Kd of 1.29 nM. Against the preceding molecule, the Kd is about 4-fold higher.
Still for that read-out and setting: with B6 the figure was 1.99 nM; with B7, 0.33 nM.
B8: binding was characterised by a dissociation constant (Kd) of 5.14 nM. This Kd is about 16-fold higher than that of the molecule before.
With B9, the Kd was found to be 1.81 nM.
Still for that read-out and setting: next, B10: 1.28 nM; B11: 1.28 nM; B12: 4.25 nM.
Still for that read-out and setting: next, B13: 0.34 nM.

A further test has as its target T1, human TL1A. The test can be described thus: SPR, mAb format, average.
Consider B14, for which binding was characterised by a dissociation constant (Kd) of 0.339 nM.
Still for that read-out and setting: next, B15: 0.101 nM; B16: 0.096 nM.
With B17, binding was characterised by a dissociation constant (Kd) of 0.2 nM.
In turn, B18 came in with a dissociation constant (Kd) of 0.051 nM.
On the same count and under the same terms, with B19 the figure was 0.091 nM; with B20, 0.151 nM; with B21, 0.073 nM.
The molecule B22 had a dissociation constant (Kd) of 0.179 nM.

The target in the next test is T1, human TL1A. As to the kind of experiment: SPR, mAb format, average. This is another data set of the same source.
For B14, binding was put at a Kd of 0.339 nM.
B15 had a Kd of 0.101 nM.
In turn, B16 returned a Kd of 0.096 nM.
As for B17, the Kd is 0.2 nM.
Same read-out and setting: next, B18: 0.051 nM; B19: 0.091 nM; B20: 0.151 nM.
The same measure, in the same setting: next, B21: 0.073 nM.
Same read-out and setting: next, B22: 0.179 nM.

For another test, the target named is T2, Cyno TL1A. The test can be described thus: SPR, mAb format, average.
B14 gave an equilibrium dissociation constant (Kd) of 0.09 nM.
As to B15, the Kd was found to be 0.085 nM. The Kd values of the last two molecules are within 1.5-fold of each other.
Regarding B16, the Kd was found to be 0.064 nM. This Kd and that of the molecule before are within 1.5-fold of each other.
Still for that read-out and setting: next, B17: 0.135 nM; B18: 0.034 nM.
For B19, the affinity, expressed as Kd, was 0.085 nM.
Molecule B20 registered a dissociation constant Kd of 0.139 nM. This Kd is about 1.6-fold higher than that of the molecule before.
Same read-out and setting: with B21 the figure was 0.038 nM; with B22, 0.125 nM.

For a further test, the target named is T3, mouse TL1A (mouse, UniProt Q5UBV8 76-252, limits assumed).
T3 sequence (looked up): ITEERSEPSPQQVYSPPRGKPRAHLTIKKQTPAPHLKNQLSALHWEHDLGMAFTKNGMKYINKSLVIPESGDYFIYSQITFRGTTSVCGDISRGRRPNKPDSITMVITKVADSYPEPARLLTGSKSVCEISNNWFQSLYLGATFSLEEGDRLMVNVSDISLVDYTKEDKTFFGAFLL
The test can be described thus: SPR, mAb format, average.
Regarding B14, the Kd stood at 955 nM.
The same measure, in the same setting: next, B15: 1720 nM; B16: 739 nM.
Consider B17, for which binding was put at a Kd of 842 nM.
On the same count and under the same terms, with B18 the figure was 290 nM; with B19, 418 nM.
On the same count and under the same terms, with B20 the figure was 74500 nM.
B21 had a Kd of 727 nM.
As to B22, the equilibrium dissociation constant (Kd) stood at 1270 nM.

The next test deals with T1, human TL1A. As to the kind of experiment: SPR, mAb format, average. The source holds these as a separate data set.
Turning to B14, binding was characterised by a dissociation constant (Kd) of 0.339 nM. This lies in the sub-nanomolar range.
Consider B15, for which binding was characterised by a dissociation constant (Kd) of 0.101 nM.
On the same count and under the same terms, next, B16: 0.096 nM.
On the same count and under the same terms, with B17 the figure was 0.2 nM; with B18, 0.051 nM.
As for B19, the Kd was 0.091 nM.
On the same count and under the same terms, with B20 the figure was 0.151 nM.
Still for that read-out and setting: with B21 the figure was 0.073 nM; with B22, 0.179 nM.

A further test addresses T4, FcRn (UniProt P55899 24-297; P61769 21-119).
T4 construct: also called neonatal receptor
As to the kind of experiment: SPR, mAb format, FcRn at pH 6.0, average.
The molecule B14 had a Kd of 17.7 nM. This lies in the double-digit nanomolar range.
With B15, the Kd came out at 20.9 nM.
Turning to B16, the equilibrium dissociation constant (Kd) came to 18.2 nM.
Molecule B17 displayed a Kd of 20.4 nM.
On the same count and under the same terms, next, B18: 16.9 nM.
Still for that read-out and setting: next, B19: 17.6 nM; B20: 17.5 nM.
Take B21: the affinity, expressed as Kd, was 17.2 nM. This Kd and that of the molecule before are within 1.5-fold of each other.
B22 gave a Kd of 19 nM.

A further test deals with T1, human TL1A. The test can be described thus: SPR, Fab format.
With B2, the Kd was < 1 nM.
B3: the Kd is < 1 nM.
Same read-out and setting: next, B4: < 1 nM; B5: < 1 nM; B6: < 1 nM.
Still for that read-out and setting: next, B7: < 1 nM.
On the same count and under the same terms, with B8 the figure was < 1 nM; with B9, < 1 nM.
For the molecule B10, the dissociation constant (Kd) was < 1 nM.
On the same count and under the same terms, next, B11: < 1 nM; B12: < 1 nM.
Still for that read-out and setting: with B13 the figure was < 1 nM.

(Values after US20250109209A1 (ABSCI, published 2025).)
